Measured values taken from patent US20150260724A1.

Target: endogenous Fc epsilon receptor I (the IgE receptor) of RBL-2H3 cells (rat) (UniProt P12371)
Assay: cell-based or functional assay

UniProt P12371, sequence (P12371 24-245): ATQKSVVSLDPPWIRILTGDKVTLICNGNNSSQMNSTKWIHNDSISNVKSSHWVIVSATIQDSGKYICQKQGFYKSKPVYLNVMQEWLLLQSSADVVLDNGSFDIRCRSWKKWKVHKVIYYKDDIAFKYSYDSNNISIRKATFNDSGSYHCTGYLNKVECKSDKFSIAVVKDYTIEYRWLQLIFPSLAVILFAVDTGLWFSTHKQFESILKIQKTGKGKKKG

FLUORESCENCE (IgE + TNP-BSA, specific exocytosis); 1B7-HEXB clone, HEXB substrate 4MU-NGlc, 30 min: 28600 | FLUORESCENCE (IgE + TNP-BSA, specific exocytosis); 1C4-HEXB clone, HEXB substrate 4MU-NGlc, 30 min: 39200 | FLUORESCENCE (IgE + TNP-BSA, specific exocytosis); 1F10-HEXB clone, HEXB substrate 4MU-NGlc, 30 min: 17400 | FLUORESCENCE (IgE + TNP-BSA, specific exocytosis); 2D1-SEAP clone, phosphatase substrate fluorescein diphosphate, 30 min: 62900 | FLUORESCENCE (IgE + TNP-BSA, specific exocytosis); RBL2H3-HEXB (whole stable population), HEXB substrate 4MU-NGlc, 30 min: 14100 | FLUORESCENCE (IgE + TNP-BSA, specific exocytosis); RBL2H3 cells, HEXB substrate 4MU-NGlc, 30 min: 6420 | FLUORESCENCE (IgE + TNP-BSA, specific exocytosis); RBL2H3 cells, phosphatase substrate fluorescein diphosphate, 30 min: 29900 | LU… (IgE + TNP-BSA, specific exocytosis); supernatant of 12.500 GZB-GLuc cells, coelenterazine: 997 | LU… (IgE + TNP-BSA, specific exocytosis); supernatant of 25.000 GZB-GLuc cells, coelenterazine: 3780 | LU… (IgE + TNP-BSA, specific exocytosis); supernatant of 50.000 GZB-GLuc cells, coelenterazine: 4710 | LU… (IgE + TNP-BSA, specific exocytosis); supernatant of 100.000 GZB-GLuc cells, coelenterazine: 6280
Substance: mouse IgE monoclonal antibody against trinitrophenyl hapten, purified from IgELb4 hybridoma (ATCC TIB-141)
